From patent publication US20220396616A1 (SANYOU BIOPHARMACEUTICALS, published 2022)

Columns and labels:
[1] = target: human CLDN18.2 (human); test: cell-based or functional assay
[2] = target: T1, human CLDN18.1 (human, UniProt P56856 1-261); test: flow cytometry, phage supernatant on human CLDN18.1-HEK293 cells
T1 construct: Full length, overexpressed on HEK293 cells; also called hCLDN18.1; human CLDN18.1-HEK293
Description: (§1) firstly, 1×10⁵ of human CLDN18.2-HEK293T and human CLDN18.1-HEK293 cells were taken, respectively and centrifuged at a low speed of 500 g, and the supernatant was removed.

[3] = target: T1, human CLDN18.1; test: flow cytometry, phage supernatant on hCLDN18.1-expressing HEK293 cells
Description: as §1

[4] = target: T2, human CLDN18.2 (human); test: flow cytometry, phage supernatant; hCLDN18.2 cells against hCLDN18.1 cells
T2 construct: also called hCLDN18.2; huCLDN18.2
Description: as §1

[5] = target: T2, human CLDN18.2; test: flow cytometry, phage supernatant on hCLDN18.2-expressing HEK293T cells
Description: as §1

[6] = target: T1, human CLDN18.1; test: flow cytometry on CLDN18.1-HEK293 cells, different concentrations
Protocol: Therefore, in this example, different concentrations of the antibody (including the high concentration of 100 μg/mL) were used to incubate with CLDN18.1-HEK293 in vitro. […] The antibody at different concentrations and target cells CLDN18.1-HEK293 were incubated at 4° C. for 1 h and then rinsed three times with the FACS buffer mentioned above. 0.5 μg (0.5 mg/ml) of PE-labelled goat anti-human IgG Fc antibody (Abcam, ab98596) was added and incubated at 4° C. for another 1 h. […] The binding strength and the positive rate of cell binding were recorded.

T1 sequence (P56856 whole entry): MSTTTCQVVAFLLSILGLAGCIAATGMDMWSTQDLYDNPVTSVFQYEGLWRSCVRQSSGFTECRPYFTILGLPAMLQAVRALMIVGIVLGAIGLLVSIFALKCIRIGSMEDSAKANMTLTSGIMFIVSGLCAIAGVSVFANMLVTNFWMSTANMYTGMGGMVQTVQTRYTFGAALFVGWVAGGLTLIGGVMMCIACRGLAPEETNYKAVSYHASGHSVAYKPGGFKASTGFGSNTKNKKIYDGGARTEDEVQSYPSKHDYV

| Binder | binding result [2] | mean fluorescence intensity [3] [MFI] | ratio of mean fluorescence intensities on hCLDN18.2 and hCLDN18.1 cells [4] | mean fluorescence intensity [5] [MFI] | also measured |
| --- | --- | --- | --- | --- | --- |
| IMAB362 antibody (antibody, V domains shown) VH: QVQLQQPGAELVRPGASVKLSCKASGYTFTSYWINWVKQRPGQGLEWIGNIYPSDSYTNYNQKFKDKATLTVDKSSSTAYMQLSSPTSEDSAVYYCTRSWRGNSFDYWGQGTTLTVSS VL: DIVMTQSPSSLTVTAGEKVTMSCKSSQSLLNSGNQKNYLTWYQQKPGQPPKLLIYWASTRESGVPDRFTGSGSGTDFTLTISSVQAEDLAVYYCQNDYSYPFTFGSGTKLEIKR | – | – | – | – | CDC cell killing on CLDN18.2-KATOIII cells, EC50 (run with NA3S-H1) [1]: 149 nM; CDC cell killing on human CLDN18.2-HEK293T cells, EC50 [1]: 0.936 nM; CDC cell killing on human CLDN18.2-KATOIII tumor cells, EC50 (run with NA1-S, FIG. 6b) [1]: 50.9 nM; CDC cell killing on human CLDN18.2-KATOIII tumor cells, EC50 (run with NA3-S, FIG. 7d) [1]: 85.8 nM; Fab-ZAP cell killing (internalization) on CLDN18.2-HEK293T cells, IC50 (run with NA1-S) [1]: 0.24 nM; Fab-ZAP cell killing (internalization) on CLDN18.2-HEK293T cells, IC50 (run with NA3-S) [1]: 0.32 nM |
| A18-1-42 (VHH, also called candidate nanobody A18-1-42) VHH: EVQVVESGGGLVQPGGSLRLSCAASGSILHIPVMSWYRQAPGKQRELVAGISTGGTTNYGDSVKGRFTISRDNAKNTVYLQMNSLKPEDTAAYYCNVLVVSGIGSHLEVWG | no binding | 1010 | 392 | 396000 | – |
| humanized antibody NA3S-H1 (Fc fusion, Humanized form of NA3-S; also called candidate antibody NA3S-H1; humanized molecule NA3S-H1; not shown: a human IgG Fc is implied (detected with anti-human IgG Fc)) QVQLVESGGGLVQPGGSLRLSCAASGSIFNIPVMGWYRQAPGKQRELVAGISTGGTTNYGDSVKGRFTISRDNAKNTVYLQMNSLKPEDTAVYYCNVLVVSGIGSTLEVWGQGTLVTVSS | – | – | – | – | CDC cell killing on CLDN18.2-KATOIII cells, EC50 [1]: 10.4 nM; binding result [6]: no binding (tested: 100 µg/mL) |
| A18-1-48 (VHH) VHH: EVQLVESGGGLVQPGGSLRLSCAASGNIFRIDTMGWYRQAPGKQREFVAGISRGGSTNYAHSVKERFTISRDNAKNTMYLQMNSLKSEDTAGYYCNAQAWDPGTIRYLEVWGQGTLVTVSA | – | 3450 | 103 | 357000 | – |
| A18-1-50 (VHH) VHH: EVQVQESGGGLVQPGGSLRLSCAASGNIFRIDTMGWYRQAPGKQRELVAGISRGGTTTYAHSVKERFTISRDNAKNTMYLQMNSLKSEDTAGYYCNAQAWDPGTFRYLEVWGQGTLVTVSA | – | 6040 | 67 | 403000 | – |
| A18-1-64 (VHH) VHH: QVQLVESGGGLVQPGGSLRLSCAASGNIFRIDTMGWYRQAPGKQREFVAGISRGGSTNYAHSVKERFTISRDNAKNTMYLQMNSLKSEDTAGYYCNAQAWDPGTIRYLEVWGQGTLVTVSS | – | 3500 | 116 | 406000 | – |
| A18-1-70 (VHH) VHH: QVQLVESGGGLVQPGGSLRLSCAASGNIFRIDTMGWYRQAPGKQRELVAGISRGGTTTYAHSVKERFTISRDNAKNTMYLQMNSLKSEDTAGYYCNAQAWDPGTFRYLEVWGQGTLVTVSA | – | 6230 | 65 | 402000 | – |
| A18-1-75 (VHH) VHH: EVQLVESGGGLVQPGGSLRLSCAASGNIFRIDTMVWYRQAPGKQRELVAGISRGGTTNYAHSVKGRFTISRDNAKNTMYLQMNSLKSEDTATYYCNAQAWDVGTIRYLEVWGQGTLVTVSA | – | 3890 | 99 | 387000 | – |
| A18-1-78 (VHH) VHH: EVQLQESGGGLVQPGGSLRLSCAASGNIFRIDTMGWYRQAPGKQREFVAGISRGGSTNYAHSVKERFTISRDNAKNTMYLQMNSLKSEDTAGYYCNAQAWDPGTIRYLEVWGQGTLVTVSA | – | 3680 | 105 | 385000 | – |
| A293-82 (VHH) VHH: EVQVVESGGGLVQPGGSLRLSCAASGNIFRIDTMVWYRQAPGKQRELVAGISRGGTTNYAHSVKGRFTISRDNAKNTMYLQMNSLKSEDTATYYCNAQAWDVGTIRYLEVWGQGTLVTVSA | – | 4320 | 102 | 442000 | – |
| A-2-4 (VHH, also called candidate nanobody A-2-4) VHH: EVQVQESGGGLVQAGTSLRLSCAASGNIFRIDTMGWYRQAPGKQRELVAGISRGGTTTYAHSVKERFTISRDNAKNTMYLQMNSLKSEDTAGYYCNAQAWDPGTFRYLEVWGQGTLVTVSA | – | 4330 | 137 | 592000 | – |
| A18-1-44 (VHH) VHH: EVQLVESGGGLVQPGGSLRLSCAASGSIFNLPVMSWYRQAPGKQRELVAGISTGGTTNYGDSVKGRFTISRDNAKNTVYLQMNSLKPEDTAVYYCNVLVISGIGSHLEVWG | no binding | 3740 | 104 | 390000 | – |
| A18-1-6 (VHH) VHH: EVQVQESGGGLVQPGGSLRLSCAASGSIFNIPVMSWYRQAPGKQRELVAGISTGGTTNYGDSVKGRFTISRDNAKTTVYLQMNSLKPEDTAVYYCNVLVISGIGSHLEVWG | no binding | 1970 | 201 | 396000 | – |
| A18-1-45 (VHH) VHH: EVQLQESGGGLVQPGGSLRLSCAASGIIFNIPVMSWYRQAPGKQRELVAGISTGGTTNYGDSVKGRFTISRDNAKNTVYLQMNSLKPEDTAVYYCNVLVVSGIGSHLEVWG | no binding | 4750 | 78 | 369000 | – |
| A18-1-62 (VHH) VHH: QVQLVESGGGLVQPGGSLRLSCAASGTIFNIPVMGWYRQAPGKQRELVAGISTGGTTNYGDSVKGRFTISRDNAKNTVYLQMNSLKPEDTAVYYCNVLVISGIGSHLEVWG | no binding | 2940 | 126 | 372000 | – |
| A18-1-63 (VHH, also called candidate nanobody A18-1-63) VHH: QVQLQESGGGLVQPGGSLRLSCAASGSIFNIPVMGWYRQAPGKQRELVAGISTGGTTNYGDSVKGRFTISRDNAKNTVYLQMNSLKPEDTAVYYCNVLVVSGIGSTLEVWG | no binding | 175 | 2200 | 385000 | – |
| A18-1-65 (VHH) VHH: EVQLQESGGGLVQPGGSLRLSCAASGTIFNLPVMSWYRQAPGKQRELVAGISTGGTTNYGDSVKGRFTISRDNARNTVYLQMNSLKPEDTAVYYCNVLVVSGIGSHLEVWG | no binding | 5890 | 73 | 428000 | – |
| A293-34 (VHH, also called candidate nanobody A293-34) VHH: QVQLQESGGGLVQPGGSLRLSCAASGTFFNIPVMGWYRQAPGKQRELVAGISTGGTTNYGDSVKGRFTISRDNAKNTVYLQMNSLKPEDTAVYYCNVLVISGIGSHLEVWG | no binding | 2430 | 187 | 454000 | – |
| A293-55 (VHH) VHH: QVQLVESGGGSVQPGGSLRLSCAASGSIFHIVVMGWYRQAPGKQRELVAGMSTGGTTNYGDSVKGRFTISRDNAKNTVYLQMNSLKPEDTAVYYCNVLVISGIGSHLEVWG | no binding | 3340 | 117 | 392000 | – |
| A-2-3 (VHH) VHH: EVQLVESGGGLVQPGGSLRLSCAASGSIFNLPVMSWYRQAPGKQRELVAGISTGGTTNYGDSVKGRFTISRDNAKNTVYLQMNSLKPEDTAVYYCNVLVVSGIGSHLEVWG | no binding | 3260 | 175 | 570000 | – |
